Measured values from patent US20230365671A1 (ONCOONE RESEARCH AND DEVELOPMENT, published 2023).

Tests used:
[1] = target: T1, Human oxMIF (human recombinant MIF treated with 0.2% Proclin300, oxMIF surrogate) (human, UniProt P14174 2-115, treated with 0.2% Proclin300 (active component 5-chloro-2-methyl-4-isothiazolin-3-one) for 3 h to transform MIF into an oxMIF surrogate); experiment: SPR (Biacore 3000), antibody amine-coupled to CM5 chip, Proclin300-treated MIF 50-150 nM as analyte, 1:1 Langmuir with mass transfer; mean of flow cells 2-4, SD +/-0.38 nM
T1 construct: SPR analyte; also called Proclin300 treated MIF; soluble human oxMIF
T1 sequence (P14174 2-115 limits assumed): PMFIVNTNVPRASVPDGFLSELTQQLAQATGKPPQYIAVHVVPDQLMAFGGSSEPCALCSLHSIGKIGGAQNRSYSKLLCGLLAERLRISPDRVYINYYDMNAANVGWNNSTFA
Procedure: FC1 was used as reference cell and was only reacted with buffers. Mouse or human recombinant MIF were diluted in HBS-EP buffer (GE Healthcare) to concentrations of 50, 75, 100, or 150 nM in the presence of 0.2% Proclin300 (active component 5-chloro-2-methyl-4-isothiazolin-3-one; Sigma) to transform MIF into an oxMIF surrogate (Thiele M et al., 2015) for 3 h at room temperature. Proclin300 treated MIF was applied to immobilized anti-oxMIF antibodies at a flow rate of 30 μl/min for 3 min using a Biacore™ 3000 Instrument (GE Healthcare). Dissociation time was 300 seconds, and the chip was regenerated using 10 mM HCl for 3 minutes. The kinetics of the concentration series were analyzed by local simultaneous association/dissociation fitting of each binding curve after subtraction of background from the reference cell (FC1) using the iterative Langmuir 1:1 interaction model with mass transfer compensation provided by the BiaEvaluation 4.1 software (GE Healthcare). Data are represented as mean+/−SD (standard deviation) of the calculated KD values of Flow Cells 2-4.

[2] = target: T2, oxMIF: recombinant human MIF immobilized into ELISA plates (transforming MIF to oxMIF) (human, UniProt P14174 2-115); experiment: ELISA, antibody titrated on plate-immobilized recombinant human MIF (oxMIF), goat anti-human IgG(Fc)-HRP; EC50 of 4-parameter fit given as KD, two experiments
T2 construct: Same polypeptide as redMIF; differs in conformation (oxMIF isoform); also called immobilized MIF; immobilized oxMIF
T2 sequence (P14174 2-115 limits assumed): as above
Procedure: (§1) Recombinant human MIF diluted in PBS at 1 μg/ml was immobilized into ELISA plates overnight at 4° C. (transforming MIF to oxMIF according to Thiele et al., 2015). After blocking, serial dilutions of anti-oxMIF antibodies were added to the plates. Finally, bound antibodies were detected with Goat anti-human IgG(Fc)-HRP conjugate and tetramethylbenzidine (TMB) as substrate. The chromogenic reaction was stopped with 3M H₂SO₄ and OD was measured at 450 nm.

[3] = target: T2, oxMIF: recombinant human MIF …; experiment: ELISA, antibody titrated on plate-immobilized recombinant human MIF (oxMIF), protein L-HRP; EC50 of 4-parameter fit given as KD, mean of two experiments
Procedure: as §1, with “using a protein L-HRP” for “with Goat anti-human IgG(Fc)-HRP”

[4] = target: T2, oxMIF: recombinant human MIF …; experiment: ELISA on plate-immobilized recombinant human MIF (oxMIF)
Procedure: as §1, with “using a protein L-HRP” for “with Goat anti-human IgG(Fc)-HRP”

B1: anti-oxMIF antibody C0008 (control antibody) (antibody, human IgG1, kappa, V domains shown)
VH: EVQLLESGGGLVQPGGSLRLSCAASGFTFSIYSMNWVRQAPGKGLEWVSSIGSSGGTTYYADSVKGRFTISRDNSKNTLYLQMNSLRAEDTAVYYCAGSQWLYGMDVWGQGTTVTVSS
VL: DIQMTQSPSSLSASVGDRVTITCRSSQRIMTYLNWYQQKPGKAPKLLIFVASHSQSGVPSRFRGSGSETDFTLTISGLQPEDSATYYCQQSFWTPLTFGGGTKVEIKR
notes: Human IgG with wt Fc
Kd [1]: 3.49 nM | Kd [2]: 0.2 nM | Kd [3]: 0.7 nM

B2: anti-oxMIF antibody C0083 (antibody, human IgG1, kappa)
heavy: not shown
light: DIQMTQSPSSLSASVGDRVTITCRSSQRIMTYLNWYQQKPGKAPKLLIYVGSHSQSGVPSRFRGSGSETDFTLTISGLQPEDSATYYCQQSFFTPLTFGGGTKVEIKRTVAAPSVFIFPPSDEQLKSGTASVVCLLNNFYPREAKVQWKVDNALQSGNSQESVTEQDSKDSTYSLSSTLTLSKADYEKHKVYACEVTHQGLSSPVTKSFNRGEC
Kd [3]: 0.5 nM

B3: anti-oxMIF antibody C0097 (antibody, human IgG1, kappa)
heavy: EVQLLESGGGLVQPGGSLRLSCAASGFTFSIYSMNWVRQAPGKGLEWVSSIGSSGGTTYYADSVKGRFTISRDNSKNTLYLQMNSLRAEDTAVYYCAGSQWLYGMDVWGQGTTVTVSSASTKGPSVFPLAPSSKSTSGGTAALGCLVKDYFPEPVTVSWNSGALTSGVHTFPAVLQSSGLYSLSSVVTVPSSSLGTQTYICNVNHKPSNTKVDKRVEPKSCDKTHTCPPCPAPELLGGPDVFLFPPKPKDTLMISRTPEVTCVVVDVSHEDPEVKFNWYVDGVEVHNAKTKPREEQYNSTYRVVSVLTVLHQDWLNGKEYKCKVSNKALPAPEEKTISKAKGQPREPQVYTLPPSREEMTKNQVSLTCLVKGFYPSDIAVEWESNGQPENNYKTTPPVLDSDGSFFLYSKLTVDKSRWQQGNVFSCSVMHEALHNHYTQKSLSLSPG
light: DIQMTQSPSSLSASVGDRVTITCRSSQRIMTYLNWYQQKPGKAPKLLIYVGSHSQSGVPSRFRGSGSETDFTLTISGLQPEDSATYYCQQSFFTPLTFGGGTKVEIKRTVAAPSVFIFPPSDEQLKSGTASVVCLLNNFYPREAKVQWKVDNALQSGNSQESVTEQDSKDSTYSLSSTLTLSKADYEKHKVYACEVTHQGLSSPVTKSFNRGEC
notes: Fc mutated to increase effector functions
Kd [3]: 0.8 nM

B4: anti-oxMIF antibody C0099 (antibody, human IgG1, kappa)
heavy: EVQLLESGGGLVQPGGSLRLSCAASGFTFSIYSMNWVRQAPGKGLEWVSSIGSSGGTTYYADSVKGRFTISRDNSKNTLYLQMNSLRAEDTAVYYCAGSQWLYGMDVWGQGTTVTVSSASTKGPSVFPLAPSSKSTSGGTAALGCLVKDYFPEPVTVSWNSGALTSGVHTFPAVLQSSGLYSLSSVVTVPSSSLGTQTYICNVNHKPSNTKVDKKVEPKSCDKTHTCPPCPAPELLGGPDVFLFPPKPKDTLMISRTPEVTCVVVDVSHEDPEVQFNWYVDGVEVHNAKTKPREEQFNSTFRVVSVLTVVHQDWLNGKEYKCKVSNKALPAPEEKTISKTKGQPREPQVYTLPPSREEMTKNQVSLTCLVKGFYPSDIAVEWESNGQPENNYKTTPPMLDSDGSFFLYSKLTVDKSRWQQGNVFSCSVMHEALHNHYTQKSLSLSPG
light: DIQMTQSPSSLSASVGDRVTITCRSSQRIMTYLNWYQQKPGKAPKLLIYVGSHSQSGVPSRFRGSGSETDFTLTISGLQPEDSATYYCQQSFFTPLTFGGGTKVEIKRTVAAPSVFIFPPSDEQLKSGTASVVCLLNNFYPREAKVQWKVDNALQSGNSQESVTEQDSKDSTYSLSSTLTLSKADYEKHKVYACEVTHQGLSSPVTKSFNRGEC
notes: as for B3
Kd [3]: 0.4 nM

B5: anti-oxMIF antibody C0090 (antibody, human IgG1, kappa)
heavy: not shown
light: DIQMTQSPSSLSASVGDRVTITCRSSQRILTYLNWYQQKPGKAPKLLIYVGSHSQSGVPSRFRGSGSETDFTLTISGLQSEDSATYYCQQSFFTPLTFGGGTKVEIKRTVAAPSVFIFPPSDEQLKSGTASVVCLLNNFYPREAKVQWKVDNALQSGNSQESVTEQDSKDSTYSLSSTLTLSKADYEKHKVYACEVTHQGLSSPVTKSFNRGEC
Kd [3]: 0.5 nM

B6: anti-oxMIF antibody C0100 (antibody, human IgG1, kappa)
heavy: EVQLLESGGGLVQPGGSLRLSCAASGFTFSIYSMNWVRQAPGKGLEWVSSIGSSGGTTYYADSVKGRFTISRDNSKNTLYLQMNSLRAEDTAVYYCAGSQWLYGMDVWGQGTTVTVSSASTKGPSVFPLAPSSKSTSGGTAALGCLVKDYFPEPVTVSWNSGALTSGVHTFPAVLQSSGLYSLSSVVTVPSSSLGTQTYICNVNHKPSNTKVDKRVEPKSCDKTHTCPPCPAPELVGGPSVFLLPPKPKDTLMISRTPEVTCVVVDVSHEDPEVKFNWYVDGVEVHNAKTKPPEEQYNSTLRVVSVLTVLHQDWLNGKEYKCKVSNKALPAPIEKTISKAKGQPREPQVYTLPPSRDELTKNQVSLTCLVKGFYPSDIAVEWESNGQPENNYKTTPLVLDSDGSFFLYSKLTVDKSRWQQGNVFSCSVMHEALHNHYTQKSLSLSPG
light: DIQMTQSPSSLSASVGDRVTITCRSSQRIMTYLNWYQQKPGKAPKLLIYVGSHSQSGVPSRFRGSGSETDFTLTISGLQPEDSATYYCQQSFFTPLTFGGGTKVEIKRTVAAPSVFIFPPSDEQLKSGTASVVCLLNNFYPREAKVQWKVDNALQSGNSQESVTEQDSKDSTYSLSSTLTLSKADYEKHKVYACEVTHQGLSSPVTKSFNRGEC
notes: as for B3
Kd [3]: 0.5 nM

B7: anti-oxMIF antibody C0076 (antibody, human IgG1, kappa, V domains shown)
VH: EVQLQESGGGLVQPGGSLRLSCAASGFTFSIYSMNWVRQAPGKGLEWVSSIGSSGGTTYYADSVKGRFTISRDNSKNTLYLQMNSLRAEDTAVYYCAGSQWLYGMDVWGQGTTVTVSS
VL: DIQMTQSPSSLSASVGDRVTITCRSSQRIMTYLNWYQQKPGKAPKLLIYVGSHSQSGVPSRFRGSGSETDFTLTISGLQPEDSATYYCQQSFWTPLTFGGGTKVEIKR
Kd [3]: 1.1 nM

B8: anti-oxMIF antibody C0098 (antibody, human IgG1, kappa)
heavy: EVQLLESGGGLVQPGGSLRLSCAASGFTFSIYSMNWVRQAPGKGLEWVSSIGSSGGTTYYADSVKGRFTISRDNSKNTLYLQMNSLRAEDTAVYYCAGSQWLYGMDVWGQGTTVTVSSASTKGPSVFPLAPSSKSTSGGTAALGCLVKDYFPEPVTVSWNSGALTSGVHTFPAVLQSSGLYSLSSVVTVPSSSLGTQTYICNVNHKPSNTKVDKRVEPKSCDKTHTCPPCPAPELLGGPDVFLFPPKPKDTLMISRTPEVTCVVVDVSFEDPEVKFNWYVDGVEVHNAKTKPREEQYNSTYRVVSVLTVLHQDWLNGKEYKCKVTNKALPAPEEKTISKAKGQPREPQVYTLPPSREEMTKNQVSLTCLVKGFYPSDIAVEWESNGQPENNYKTTPPVLDSDGSFFLYSKLTVDKSRWQQGNVFSCSVMHEALHNHYTQKSLSLSPG
light: DIQMTQSPSSLSASVGDRVTITCRSSQRIMTYLNWYQQKPGKAPKLLIYVGSHSQSGVPSRFRGSGSETDFTLTISGLQPEDSATYYCQQSFFTPLTFGGGTKVEIKRTVAAPSVFIFPPSDEQLKSGTASVVCLLNNFYPREAKVQWKVDNALQSGNSQESVTEQDSKDSTYSLSSTLTLSKADYEKHKVYACEVTHQGLSSPVTKSFNRGEC
notes: as for B3
Kd [3]: 0.7 nM

B9: anti-oxMIF antibody C0077 (antibody, human IgG1, kappa, V domains shown)
VH: EVQLQESGGGLVQPGGSLRLSCAASGFTFSIYSMNWVRQAPGKGLEWVSSIGSSGGTTYYADSVKGRFTISRDNSKNTLYLQMNSLRAEDTAVYYCAGSQWLYGMDVWGQGTTVTVSS
VL: DIQMTQSPSSLSASVGDRVTITCRSSQRIMTYLNWFQQKPGKAPKLLIYVGSHSQSGVPSRFRGSGSETDFTLTISGLQPEDSATYYCQQSFWTPLTFGGGTKVEIKR
notes: Differs from C0076 only by Y36F in VL
fold reduction in affinity compared to C0076 [4]: 5 fold | Kd [3]: 5.2 nM

B10: anti-oxMIF antibody C0073 (antibody, human IgG1, kappa)
heavy: not shown
light: DIQMTQSPSSLSASVGDRVTITCRSSQRIMTYLNWYQQKPGKAPKLLIYVGSHSQSGVPSRFRGSGSETDFTLTISGLQPEDSATYYCQQSFFTPLTFGGGTKVEIKRTVAAPSVFIFPPSDEQLKSGTASVVCLLNNFYPREAKVQWKVDNALQSGNSQESVTEQDSKDSTYSLSSTLTLSKADYEKHKVYACEVTHQGLSSPVTKSFNRGEC
Kd [3]: 1 nM

B11: anti-oxMIF antibody C0078 (antibody, human IgG1, kappa)
heavy: not shown
light: DIQMTQSPSSLSASVGDRVTITCRSSQRIMTYLNWYQQKPGKAPKLLIYVGSHSQSGVPSRFRGSGSETDFTLTISGLQPEDSATYYCQQSFFTPLTFGGGTKVEIKRTVAAPSVFIFPPSDEQLKSGTASVVCLLNNFYPREAKVQWKVDNALQSGNSQESVTEQDSKDSTYSLSSTLTLSKADYEKHKVYACEVTHQGLSSPVTKSFNRGEC
Kd [3]: 1.6 nM
